Measurements as given in patent US20090029376.
Positions count from the first letter of the chain named.

What was measured:
Assay in all cases: cleavage_in_vitro
[1] = tested on: T1, BsmBI-HF N185Y/R232A (Bacillus stearothermophilus); conditions: NEB4, 55 C
T1 sequence: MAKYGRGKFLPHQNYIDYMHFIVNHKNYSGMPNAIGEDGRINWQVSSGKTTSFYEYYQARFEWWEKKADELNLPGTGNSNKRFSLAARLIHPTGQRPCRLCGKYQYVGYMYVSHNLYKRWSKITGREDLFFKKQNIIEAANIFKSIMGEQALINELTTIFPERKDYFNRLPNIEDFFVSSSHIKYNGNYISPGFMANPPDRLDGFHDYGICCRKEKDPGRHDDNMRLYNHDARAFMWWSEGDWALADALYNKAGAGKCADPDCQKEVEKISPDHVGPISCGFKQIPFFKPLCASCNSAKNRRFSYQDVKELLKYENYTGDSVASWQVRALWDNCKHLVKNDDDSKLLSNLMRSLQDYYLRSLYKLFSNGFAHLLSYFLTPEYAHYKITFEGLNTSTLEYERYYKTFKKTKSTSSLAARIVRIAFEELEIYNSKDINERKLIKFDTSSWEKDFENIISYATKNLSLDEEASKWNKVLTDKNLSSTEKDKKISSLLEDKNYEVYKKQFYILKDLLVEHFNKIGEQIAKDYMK

[2] = tested on: T2, SbfI-HF K251A (Streptomyces species Bf-6); conditions: NEB4, 37 C
T2 sequence: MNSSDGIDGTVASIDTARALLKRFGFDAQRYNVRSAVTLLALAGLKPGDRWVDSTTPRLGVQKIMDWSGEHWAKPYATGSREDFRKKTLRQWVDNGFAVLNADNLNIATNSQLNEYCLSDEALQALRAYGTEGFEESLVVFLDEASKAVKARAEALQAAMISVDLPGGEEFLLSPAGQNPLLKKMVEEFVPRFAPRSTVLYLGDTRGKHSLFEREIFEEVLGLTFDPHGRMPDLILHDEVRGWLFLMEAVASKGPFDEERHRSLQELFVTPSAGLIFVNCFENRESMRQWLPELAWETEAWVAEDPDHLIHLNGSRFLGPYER

[3] = tested on: T3, SphI (Streptomyces phaeochromogenes); conditions: NEB4, 37 C
T3 sequence: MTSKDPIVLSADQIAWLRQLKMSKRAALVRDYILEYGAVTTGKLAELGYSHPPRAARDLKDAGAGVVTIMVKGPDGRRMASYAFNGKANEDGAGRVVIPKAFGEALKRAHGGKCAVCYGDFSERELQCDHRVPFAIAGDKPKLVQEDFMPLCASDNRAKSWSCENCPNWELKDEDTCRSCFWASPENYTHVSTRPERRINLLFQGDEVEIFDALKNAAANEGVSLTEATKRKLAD

[4] = tested on: T4, SbfI (Streptomyces species Bf-6); conditions: NEB4, 37 C
T4 sequence: T2 sequence with A251K

[5] = target: EcoRI-HF K62E (Escherichia coli RY13) (UniProt P00642); conditions: NEB4, 37 C
[6] = target: T5, HpaI (Haemophilus parainfluenzae) (UniProt P29537); conditions: NEB4, 37 C
T5 sequence: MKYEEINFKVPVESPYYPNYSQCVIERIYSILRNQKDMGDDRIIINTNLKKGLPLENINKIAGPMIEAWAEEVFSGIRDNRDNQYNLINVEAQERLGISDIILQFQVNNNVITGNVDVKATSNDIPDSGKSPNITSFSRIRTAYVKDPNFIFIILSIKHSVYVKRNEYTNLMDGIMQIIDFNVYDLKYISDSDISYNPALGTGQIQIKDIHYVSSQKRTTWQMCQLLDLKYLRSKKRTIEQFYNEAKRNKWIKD

[7] = tested on: T6, BstXI (Bacillus stearothermophilus); conditions: NEB4, 55 C; Table 2 prints 4
T6 sequence: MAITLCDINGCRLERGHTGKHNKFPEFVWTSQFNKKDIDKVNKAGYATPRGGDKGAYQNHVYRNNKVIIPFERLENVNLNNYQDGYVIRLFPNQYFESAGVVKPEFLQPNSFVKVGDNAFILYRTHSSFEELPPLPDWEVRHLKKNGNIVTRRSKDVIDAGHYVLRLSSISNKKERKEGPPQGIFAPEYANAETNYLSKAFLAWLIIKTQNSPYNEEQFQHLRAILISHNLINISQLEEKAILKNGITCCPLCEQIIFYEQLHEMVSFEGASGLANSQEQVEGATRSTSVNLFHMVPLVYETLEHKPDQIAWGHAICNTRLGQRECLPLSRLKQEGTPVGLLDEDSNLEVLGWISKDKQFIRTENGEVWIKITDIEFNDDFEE

[8] = target: T7, PstI (Providencia stuartii 164) (UniProt P00640); conditions: NEB4, 37 C
T7 sequence: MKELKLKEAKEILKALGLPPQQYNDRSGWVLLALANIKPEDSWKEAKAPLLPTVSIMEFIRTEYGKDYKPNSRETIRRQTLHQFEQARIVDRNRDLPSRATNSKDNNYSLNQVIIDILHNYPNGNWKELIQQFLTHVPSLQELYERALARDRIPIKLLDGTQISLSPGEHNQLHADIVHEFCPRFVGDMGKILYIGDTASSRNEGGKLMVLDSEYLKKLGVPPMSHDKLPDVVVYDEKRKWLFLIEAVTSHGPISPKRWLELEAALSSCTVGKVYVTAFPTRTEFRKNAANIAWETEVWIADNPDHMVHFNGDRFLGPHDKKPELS

[9] = tested on: T8, NcoI (Nocardia corallina); conditions: NEB4, 37 C
T8 sequence: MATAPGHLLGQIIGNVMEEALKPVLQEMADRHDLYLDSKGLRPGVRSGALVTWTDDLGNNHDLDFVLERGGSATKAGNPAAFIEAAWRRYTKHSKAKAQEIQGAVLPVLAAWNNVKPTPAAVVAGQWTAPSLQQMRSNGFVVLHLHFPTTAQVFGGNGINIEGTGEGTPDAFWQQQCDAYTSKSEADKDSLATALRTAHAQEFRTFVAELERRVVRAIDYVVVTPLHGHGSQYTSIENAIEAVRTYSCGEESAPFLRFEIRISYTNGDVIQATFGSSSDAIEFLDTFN

[10] = target: EcoRI (Escherichia coli RY13) (UniProt P00642); conditions: NEB4, 37 C

Substance: lambda phage DNA
- activity (fidelity index) [1]: > 500
- activity (fidelity index) [2]: 250
- activity (fidelity index) [3]: 16
- activity (fidelity index) [4]: 8
- activity (fidelity index) [5]: 16000
- activity (fidelity index) [6]: 16
- activity (fidelity index) [7]: 32
- activity (fidelity index) [8]: 8
- activity (fidelity index) [9]: 32
- activity (fidelity index) [10]: 4
